Results as given in patent publication US9695426B2, “Biofuel production by recombinant microorganisms” (The Regents of the University of California, priority 2007, dated 2017).

Columns and labels:
[1] = system: E. coli culture expressing kivd; experiment: Alcohol productions with the supply of 2-keto acids; format: cell-based; conditions: 2-keto acid added to E. coli culture expressing kivd
From the text: The addition of various 2-keto acids (see Table 13) to the E. coli culture expressing kivd confirmed the specific production of the corresponding alcohols by 2- to 23-fold.

KS145 = experiment: 1-Propanol and 1-butanol production with the selected CimA mutants (citramalate pathway); format: cell-based, E. coli; conditions: 30° C. for 40 h
Protocol: Medium and cultivation for 1-propanol and 1-butanol production. M9 medium containing 36 g/L glucose, 5 g/L yeast extract, 100 μg/ml ampicillin, 30 μg/ml kanamycin and 1000th dilution of Trace Metal Mix A5 (2.86 g H3BO3, 1.81 g MnCl2.4H2O, 0.222 g ZnSO4.7H2O, 0.39 g Na2MoO4.2H2O, 0.079 g CuSO4.5H2O, 49.4 mg Co(NO3)2.6H2O per liter water) was used for cell growth. Preculture in test tubes containing 3 ml of medium was performed at 37° C. overnight on a rotary shaker (250 rpm). Overnight culture was diluted 1:100 into 20 ml of fresh medium in a 250 ml screw cap conical flask. Cells were grown at 37° C. for 3 hr, followed by adding 0.1 mM IPTG. Cultivation was performed at 30° C. on a rotary shaker (250 rpm). Gas chromatography-flame ionization detector and high-performance liquid chromatography analyses were performed.
The citramalate pathway was then used to enhance the production of 1-propanol and 1-butanol (FIG. 13). An E. coli strain (KS145) auxotrophic for L-isoleucine, leucine, and valine (ΔilvI and ΔilvB). was transformed with pSA63 (or other plasmids containing variants of cimA) and pSA55 (PLlacO1::kivd-ADH2). The deletions of ilvI and ilvB (FIG. 13) were introduced for two reasons. First, the deletions eliminated the native substrate, 2-ketoisovalerate, for the leuABCD pathway, thus reducing the competitive substrate inhibition. Second, these deletions eliminated the production of 2-keto-3-methyl-valerate and 2-keto-4-methyl-pentanoate, which are competing substrates for Kivd. The strain expressing the wild-type cimA gene (KS145/pSA63/pSA55) produced 302 mg/liter 1-propanol and 18 mg/liter 1-butanol after 40 h (FIG. 60). KS145 with pSA55 only, where Kivd utilizes endogenous 2-keto acids, produced 40 mg/liter 1-propanol and 10 mg/liter 1-butanol under the same condition. KS145 without pSA55 and pSA63 produced neither 1-propanol nor 1-butanol (FIG. 60). Note that the yeast extract was added to the medium to boost the cell density.
1-Propanol and 1-butanol production was tested with the selected CimA variants in KS145 by replacing pSA63 with corresponding plasmids (Table 19) containing various cimA mutants. […] The production of 1-propanol and 1-butanol from the strain with CimA2 increased 3.9- and 4.3-fold, respectively, compared to the strain with the wild-type CimA.

[2] = system: endogenous 2-keto acids in E. coli; experiment: Alcohol productions with KDC and ADH in E. coli; format: cell-based; conditions: KDC over-produced with Adh2 in E. coli; minimal media with 0.2 M glucose
From the text: An enzyme in this alcohol production strategy is KDC, which is common in plants, yeasts and fungi but less so in bacteria. The aldehydes produced can then be converted to alcohols by an Adh, which is commonly found in many organisms. Some of the KDCs have broad-substrate ranges, while others are more specific. To test the capability of the endogenous 2-keto acids as a substrate for KDC in E. coli, five KDCs including Pdc6, Aro10, Thi3, from S. cerevisiae, Kivd from Lactococcus lactis, and Pdc from C. acetobutylycum were over-produced with alcohol dehydrogenase 2 (Adh2) of S. cerevisiae. E. coli cultures expressing these foreign genes were grown in a minimal media with 0.2 M glucose.

[3] = KS145 with pSA55 and pSA63 (cimA-leuABCD) or its variations
[4] = KS145 with pSA55 and pSA63 variations

CCC(C)C(=O)C(=O)O (centres unmarked) [2-keto-3-methyl-valerate]
Product 2-methyl-1-butanol [1]: 5284 µM

O=C(O)C(=O)Cc1ccccc1 [phenylpyruvate]
Product 1-butanol [1]: 23 µM | Product 1-propanol [1]: 8 µM | Product 2-phenylethanol [1]: 7269 µM | Product 3-methyl-1-butanol [1]: 105 µM | Product isobutanol [1]: 64 µM

CC(C)CC(=O)C(=O)O [2-keto-4-methyl-pentanoate]
Product 3-methyl-1-butanol [1]: 3756 µM

CCCC(=O)C(=O)O [2-ketovalerate]
Product 1-butanol [1]: 3926 µM | Product 2-phenylethanol [1]: 66 µM | Product 3-methyl-1-butanol [1]: 52 µM

CC(C)C(=O)C(=O)O [2-keto-isovalerate]
Product 2-phenylethanol [1]: 109 µM | Product isobutanol [1]: 10016 µM

B1: CimA1: CimA variant with three amino acid substitutions (Ile47Val, Lys435Asn, Val441Ala) (protein, UniProt Q58787 1-491, looked up, variant I47V K435N V441A)
(R)-citramalate synthase CimA: MMVRIFDTTLRDGEQTPGVSLTPNDKLEIAKKLDELGVDVIEAGSAVTSKGEREGIKLITKEGLNAEICSFVRALPVDIDAALECDVDSVHLVVPTSPIHMKYKLRKTEDEVLETALKAVEYAKEHGLIVELSAEDATRSDVNFLIKLFNEGEKVGADRVCVCDTVGVLTPQKSQELFKKITENVNLPVSVHCHNDFGMATANTCSAVLGGAVQCHVTVNGIGERAGNASLEEVVAALKILYGYDTKIKMEKLYEVSRIVSRLMKLPVPPNKAIVGDNAFAHEAGIHVDGLIKNTETYEPIKPEMVGNRRRIILGKHSGRKALKYKLDLMGINVSDEQLNKIYERVKEFGDLGKYISDADLLAIVREVTGKLVEEKIKLDELTVVSGNKITPIASVKLHYKGEDITLIETAYGVGPVDAAINAVRKAISGVADINLVEYRAEAIGGGTDALIEVVVKLRKGTEIVEVRKSDADIIRASVDAVMEGINMLLN
Production of 1-Butanol (KS145; [3]): 22 mg/L | Production of 1-Propanol (KS145; [3]): 695 mg/L | 1-Butanol change (fold) relative to the strain containing wild-type CimA (KS145; [4]): 1.2 fold | 1-Propanol change (fold) relative to the strain containing wild-type CimA (KS145; [4]): 2.3 fold

B2: PDC6: 2-keto-acid decarboxylase Pdc6 from S. cerevisiae (protein, listed as Saccharomyces cerevisiae)
chain: MSEITLGKYLFERLKQVNVNTIFGLPGDFNLSLLDKIYEVDGLRWAGNANELNAAYAADGYARIKGLSVLVTTFGVGELSALNGIAGSYAEHVGVLHVVGVPSISAQAKQLLLHHTLGNGDFTVFHRMSANISETTSMITDIATAPSEIDRLIRTTFITQRPSYLGLPANLVDLKVPGSLLEKPIDLSLKPNDPEAEKEVIDTVLELIQNSKNPVILSDACASRHNVKKETQKLIDLTQFPAFVTPLGKGSIDEQHPRYGGVYVGTLSKQDVKQAVESADLILSVGALLSDFNTGSFSYSYKTKNVVEFHSDYVKVKNATFLGVQMKFALQNLLKVIPDVVKGYKSVPVPTKTPANKGVPASTPLKQEWLWNELSKFLQEGDVIISETGTSAFGINQTIFPKDAYGISQVLWGSIGFTTGATLGAAFAAEEIDPNKRVILFIGDGSLQLTVQEISTMIRWGLKPYLFVLNNDGYTIEKLIHGPHAEYNEIQTWDHLALLPAFGAKKYENHKIATTGEWDALTTDSEFQKNSVIRLIELKLPVFDAPESLIKQAQLTAATNAKQ
modifications: CDS (1)..(1692)
notes: 2-keto-acid decarboxylase Pdc6 from S. cerevisiae
Product 1-propanol [2]: 125 µM | Product 2-methyl-1-butanol [2]: 56 µM | Product 3-methyl-1-butanol [2]: 92 µM | Product isobutanol [2]: 260 µM

B3: Kivd: 2-keto-acid decarboxylase Kivd from Lactococcus lactis (protein, listed as Lactococcus lactis)
chain: MYTVGDYLLDRLHELGIEEIFGVPGDYNLQFLDQIISRKDMKWVGNANELNASYMADGYARTKKAAAFLTTFGVGELSAVNGLAGSYAENLPVVEIVGSPTSKVQNEGKFVHHTLADGDFKHFMKMHEPVTAARTLLTAENATVEIDRVLSALLKERKPVYINLPVDVAAAKAEKPSLPLKKENSTSNTSDQEILNKIQESLKNAKKPIVITGHEIISFGLEKTVSQFISKTKLPITTLNFGKSSVDEALPSFLGIYNGKLSEPNLKEFVESADFILMLGVKLTDSSTGAFTHHLNENKMISLNIDEGKIFNESIQNFDFESLISSLLDLSEIEYKGKYIDKKQEDFVPSNALLSQDRLWQAVENLTQSNETIVAEQGTSFFGASSIFLKPKSHFIGQPLWGSIGYTFPAALGSQIADKESRHLLFIGDGSLQLTVQELGLAIREKINPICFIINNDGYTVEREIHGPNQSYNDIPMWNYSKLPESFGATEERVVSKIVRTENEFVSVMKEAQADPNRMYWIELILAKEDAPKVLKKMGKLFAEQNKS
Product 1-butanol [2]: 220 µM | Product 1-propanol [2]: 520 µM | Product 2-methyl-1-butanol [2]: 766 µM | Product 2-phenylethanol [2]: 324 µM | Product 3-methyl-1-butanol [2]: 1495 µM | Product isobutanol [2]: 5242 µM

B4: ARO10: 2-keto-acid decarboxylase Aro10 from S. cerevisiae (protein, listed as Saccharomyces cerevisiae)
chain: MAPVTIEKFVNQEERHLVSNRSATIPFGEYIFKRLLSIDTKSVFGVPGDFNLSLLEYLYSPSVESAGLRWVGTCNELNAAYAADGYSRYSNKIGCLITTYGVGELSALNGIAGSFAENVKVLHIVGVAKSIDSRSSNFSDRNLHHLVPQLHDSNFKGPNHKVYHDMVKDRVACSVAYLEDIETACDQVDNVIRDIYKYSKPGYIFVPADFADMSVTCDNLVNVPRISQQDCIVYPSENQLSDIINKITSWIYSSKTPAILGDVLTDRYGVSNFLNKLICKTGIWNFSTVMGKSVIDESNPTYMGQYNGKEGLKQVYEHFELCDLVLHFGVDINEINNGHYTFTYKPNAKIIQFHPNYIRLVDTRQGNEQMFKGINFAPILKELYKRIDVSKLSLQYDSNVTQYTNETMRLEDPTNGQSSIITQVHLQKTMPKFLNPGDVVVCETGSFQFSVRDFAFPSQLKYISQGFFLSIGMALPAALGVGIAMQDHSNAHINGGNVKEDYKPRLILFEGDGAAQMTIQELSTILKCNIPLEVIIWNNNGYTIERAIMGPTRSYNDVMSWKWTKLFEAFGDFDGKYTNSTLIQCPSKLALKLEELKNSNKRSGIELLEVKLGELDFPEQLKCMVEAAALKRNKK
modifications: CDS (1)..(1908)
notes: 2-keto-acid decarboxylase Aro10 from S. cerevisiae
Product 1-butanol [2]: 95 µM | Product 1-propanol [2]: 290 µM | Product 2-methyl-1-butanol [2]: 652 µM | Product 2-phenylethanol [2]: 469 µM | Product 3-methyl-1-butanol [2]: 1099 µM | Product isobutanol [2]: 2094 µM
